This is an account of results in paper doi:10.1101/373563 (bioRxiv, 2018).

Data set [1] deals with Facklamia ignava NrdB∆Grx (lacking the Grx domain) (Facklamia ignava). As to the kind of experiment: GEMMA.
Data set [2] deals with the molecule itself. As to the kind of experiment: SEC. In general terms: In gel filtration, larger molecules generally elute earlier.
The data set “GEMMA” concerns the molecule itself. The experiment in a line: GEMMA.
Data set [3] concerns the molecule itself. As to the kind of experiment: SEC. The source holds these as a separate data set.

The stoichiometry N is the number of molecules, sites or subunits per partner or assembly. As for “Facklamia ignava NrdB∆Grx (lacking the Grx domain) (domain or fragment)”, the stoichiometry N in data set [1] was 4.

B1: Facklamia ignava NrdA (natural protein, UniProt K1MC37 1-567, looked up)
chain: MTAQLKNREYEPFYWLTEDSQTFLERGYLREGQDAHSRLREIADRAEEILGIDGFSDKFYTYLGRGYYSLSTPVWTNFGSNRGFPISCFGSTPDDNMASILYTAAEIGMMSKYGGGTSGFFGHLRPRGAAITNNGYSSGAVHFMKLFEQMTDTVSQGSSRRGRFAPYLPIDHPDIDEFLEIGVEGNDIQDLNHAVTVPDDWMREMIQGDREKRATWAKVIQRRVEMGYPYILFTDTINNNKPEWYHDYPITHSNLCSEIMLPDNDHWSFVCNLSSMNVLHYNEWKDTDAVETMIYFLDAVMSEFIEKLEKLRDSDQFEYREAFHFMERAYNFAVENRALGLGVLGWHSLLQSNLIAFESEEASYLNEEIHRTIQERAEKASCELAELFGEPLILKGTGRRNTTTMAIAPTTSSAFIIGQVSQSIEPLFSNYYVKDMSKIKTTIRNRYLVELLEEKGRNTPDVWESIKNHDGSVLHLDFLSDHEKNVFKTFAEINQYEIINQAAVRQRYIDQSQSLNIMINPATTTAKEMNQLYLYAWESGIKSLYYQHSTSAAQAFYRSSVCLACEA
Consider B1, for which the “stoichiometry N” value in the data set “SEC [2]” worked out at 2.

B2: Facklamia ignava NrdB (Grx::ATP-cone::NrdB fusion protein), wild type (natural protein, UniProt K1LAT4 1-496, looked up)
chain: MTQVQVYSKKVCPWCTRLKDWMDKNNIDYEEIDIEVHPEAREYLHSLGLKTVPQVFIDGVHRPHEPLYSNLLHYIHGTSKIPQHVTKRNGDRVDFDPTKIEIAIQKANNETHELNDMEINTVTQKVVEKIDIDPIHVEEIQDLVETELMLQSFPRTAKAYILYRAEQTKARQRDIFKPRKNLKPYEYPELESYKEAIQHSYWLHTEYNYTSDIQDYKINVEPHERTAIRNAMLAISQVEVSVKTFWAKLYDRLPKPELANVGMTFAESEVRHSDAYSHLLELLGLNEIFEEIEQIPALNQRVDYLNSHIKYSQTGSNRDYTISILLFSAFIEHISLFSQFLIIMAFNKQKNLFSGISNVIEATSKEEQLHGEFGIDLINTIKAENPDWFDDELKEEIYTLVKQAYESEKDVLDWIYEDGEIDFMPTQTVLEFIKNRLNNSLEAIGLERIFETDLAEVEKTLWFDEEIVSTKHVDFFAKRSVNYTKRSQSMTADDLF
As for B2, the figures for the “stoichiometry N” value in the data set “GEMMA” and in “SEC [3]” were 2 and 4, respectively.
